Measurements: PMC8204860, “Structural basis of [sequence]‐mediated Rab1 activation” (The EMBO Journal, 2021)

Biological target: T1, Trs31 (Saccharomyces cerevisiae, UniProt Q03337 1-283)
T1 construct: Trs31, TRAPP core subunit, S. cerevisiae; also called Trs31 subunit
T1 sequence: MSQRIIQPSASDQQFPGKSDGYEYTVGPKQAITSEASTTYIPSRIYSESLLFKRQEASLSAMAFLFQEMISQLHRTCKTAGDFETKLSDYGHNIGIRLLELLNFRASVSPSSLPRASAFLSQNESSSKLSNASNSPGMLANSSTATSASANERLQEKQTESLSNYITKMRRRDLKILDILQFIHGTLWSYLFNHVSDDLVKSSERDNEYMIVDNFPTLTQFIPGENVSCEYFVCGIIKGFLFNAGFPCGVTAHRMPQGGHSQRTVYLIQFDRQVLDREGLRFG
Assay: cryo-EM structure; TRAPPIII (after anion exchange) mixed 1:3 with Ypt1-7xHis, overnight at 4°C with calf intestinal alkaline phosphatase, complex isolated by SEC in 10 mM Tris pH 7.5, 350 mM NaCl, 1 mM DTT; 3.7 Å reconstruction
Conditions: both partners purified

- binding result: binds
B1: Rab1/Ypt1 (Ypt1-7xHis) (natural protein)
chain: not shown
notes: Rab1/Ypt1, budding yeast GTPase; Made nucleotide-free in the complex by alkaline phosphatase. pGEX-6P backbone; gift from the T. Bretscher laboratory; also called GST-Ypt1-7xHis (before cleavage); source: E. coli Rosetta2, purified (glutathione resin, eluted by PreScission cleavage of GST); not shown: GST, N-terminal, cleaved
